Measured values published in the Immune Epitope Database (IEDB).

Tests used:
[1] = molecular target: HLA-B*27:05; assay: IEDB peptide-MHC binding, purified MHC/direct/fluorescence; filed as Kd, often an IC50 or EC50 that approximates it; ≥ and ≤ were set here for values at or beyond the usual limits of such assays
[2] = molecular target: HLA-A*02:02; assay: IEDB peptide-MHC binding, purified MHC/competitive/radioactivity; filed as Kd, often an IC50 or EC50 that approximates it; ≥ and ≤ were set here for values at or beyond the usual limits of such assays
[3] = molecular target: HLA-A*02:03; assay: as above
[4] = molecular target: HLA-A*02:06; assay: as above
[5] = molecular target: HLA-A*02:01; assay: IEDB peptide-MHC binding, purified MHC/direct/fluorescence; filed as Kd, often an IC50 or EC50 that approximates it; ≥ and ≤ were set here for values at or beyond the usual limits of such assays
[6] = molecular target: HLA-A*69:01; assay: as above
[7] = molecular target: HLA-B*07:02; assay: IEDB peptide-MHC binding, purified MHC/competitive/radioactivity; filed as Kd, often an IC50 or EC50 that approximates it; ≥ and ≤ were set here for values at or beyond the usual limits of such assays
[8] = molecular target: HLA-A*01:01; assay: IEDB peptide-MHC binding, purified MHC/direct/fluorescence; filed as Kd, often an IC50 or EC50 that approximates it; ≥ and ≤ were set here for values at or beyond the usual limits of such assays
[9] = molecular target: HLA-A*68:01; assay: IEDB peptide-MHC binding, purified MHC/competitive/radioactivity; filed as Kd, often an IC50 or EC50 that approximates it; ≥ and ≤ were set here for values at or beyond the usual limits of such assays; details: source organism: SARS coronavirus Tor2
[10] = molecular target: HLA-A*33:01; assay: as above; details: source organism: SARS coronavirus Tor2
[11] = molecular target: HLA-A*31:01; assay: as above; details: source organism: SARS coronavirus Tor2
[12] = molecular target: HLA-B*53:01; assay: as above; details: source organism: Dengue virus 2 Jamaica/1409/1983
[13] = molecular target: HLA-A*03:01; assay: IEDB peptide-MHC binding, purified MHC/direct/fluorescence; filed as Kd, often an IC50 or EC50 that approximates it; ≥ and ≤ were set here for values at or beyond the usual limits of such assays
[14] = molecular target: HLA-B*07:02; assay: as above; details: source organism: dengue virus type 4
[15] = molecular target: HLA-B*51:01; assay: IEDB peptide-MHC binding, purified MHC/competitive/radioactivity; filed as Kd, often an IC50 or EC50 that approximates it; ≥ and ≤ were set here for values at or beyond the usual limits of such assays
[16] = molecular target: HLA-A*02:01; assay: IEDB peptide-MHC binding, purified MHC/competitive/fluorescence; ≥ and ≤ were set here for values at or beyond the usual limits of such assays
[17] = molecular target: HLA-B*15:01; assay: IEDB peptide-MHC binding, purified MHC/direct/fluorescence; filed as Kd, often an IC50 or EC50 that approximates it; ≥ and ≤ were set here for values at or beyond the usual limits of such assays
[18] = molecular target: HLA-B*40:01; assay: as above; details: source organism: SARS-CoV1
[19] = molecular target: HLA-A*11:01; assay: as above; details: source organism: SARS-CoV1
[20] = molecular target: HLA-B*58:01; assay: as above
[21] = molecular target: HLA-A*01:01; assay: IEDB peptide-MHC binding, purified MHC/competitive/radioactivity; filed as Kd, often an IC50 or EC50 that approximates it; ≥ and ≤ were set here for values at or beyond the usual limits of such assays
[22] = source organism: Vaccinia virus WR
[23] = source organism: Vibrio vulnificus
[24] = source organism: Dengue virus 3 Martinique/1243/1999
[25] = source organism: Mammarenavirus juninense
[26] = source organism: Yersinia pestis
[27] = source organism: Lassa virus Josiah
[28] = source organism: West Nile virus

RRLKAEAQM
Kd ([1]; source organism: Mammarenavirus lassaense): 0.053 µM

RTNDLTALL
Kd [2, 22]: 0.00366 µM
Kd [3, 22]: 0.00723 µM
Kd [4, 22]: 0.119 µM

RVSENTGMGM
Kd [2, 22]: 0.839 µM
Kd [3, 22]: 0.0889 µM
Kd [4, 22]: 0.146 µM

SADNHPKMI
Kd [2, 22]: 8.18 µM
Kd [3, 22]: ≥ 43.5 µM
Kd [4, 22]: ≥ 77.1 µM

SANMDWRSLT
Kd [2, 22]: 1.79 µM
Kd [3, 22]: 11.3 µM
Kd [4, 22]: ≥ 48 µM

SAWESFWRI
Kd [5, 23]: 0.0128 µM
Kd [6, 23]: 0.0014 µM

SLTTIGTIA
Kd [2, 22]: 0.00104 µM
Kd [3, 22]: 0.00369 µM
Kd [4, 22]: 0.489 µM

SPGYVLGVFL
Kd ([7]; source organism: Dengue virus 4 Dominica/814669/1981): 0.238 µM

SPPETQKAEL
Kd [7, 24]: 0.0284 µM

SSSLTSLLK
Kd ([8]; source organism: SARS-CoV1): 1.11 µM
Kd [9]: 9.33 µM
Kd [10]: ≥ 41.5 µM
Kd [11]: 4.76 µM

SVTRLENLMW
Kd [12]: 0.437 µM

TILDDNLYKV
Kd [2, 22]: 1.08 µM
Kd [3, 22]: 1.63 µM
Kd [4, 22]: 0.0488 µM

TLHFLTRGK
Kd [13, 25]: 0.344 µM

TMGPHPAGV
Kd ([5]; source organism: Burkholderia pseudomallei): 0.0007 µM

TPEGIIPTL
Kd ([6]; source organism: dengue virus type 4): 2.72 µM
Kd [14]: 9.24 µM

TPMLRHTIEN
Kd [7, 24]: 1.02 µM

TPRAKRGTA
Kd ([7]; source organism: Dengue virus 1 Brazil/97-11/1997): 0.227 µM

TPVTTWENV
Kd [15, 24]: 12.9 µM

TQLFKYVPSA
Kd [2, 22]: ≥ 70 µM
Kd [3, 22]: ≥ 70.4 µM
Kd [4, 22]: ≥ 69.8 µM

TVKNVDIIDL
Kd [2, 22]: ≥ 31.3 µM
Kd [3, 22]: 8.31 µM
Kd [4, 22]: 12.4 µM

VAEIQPQWI
Kd ([15]; source organism: Dengue virus 4 Philippines/H241/1956): ≥ 20.9 µM

VAFLILPQA
IC50 ([16]; source organism: Zaire ebolavirus): 0.52 µM

VIKLVKSLV
Kd [2, 22]: 1.03 µM
Kd [3, 22]: 0.126 µM
Kd [4, 22]: 4.12 µM

VIRHVDGKI
Kd [2, 22]: 8.55 µM
Kd [3, 22]: 0.978 µM
Kd [4, 22]: 9.27 µM

VPMAGPLVA
Kd [7, 24]: 0.056 µM

VQQESSFVM
Kd ([1]; source organism: SARS-CoV1): 4.77 µM
Kd ([5]; source organism: SARS-CoV1): 1.07 µM
Kd ([17]; source organism: SARS-CoV1): 0.0674 µM
Kd [18]: 7.46 µM
Kd [19]: ≥ 20.7 µM

VSFSMVGLF
Kd [20, 25]: 0.119 µM

VSIPITAAAW
Kd [12]: 0.402 µM

VSWKPWSSK
Kd ([13]; source organism: Cryptosporidium parvum): 0.0507 µM

VTEEIAVQNW
Kd ([21]; source organism: Dengue virus 2 Jamaica/1409/1983): ≥ 38.7 µM

VTKRDESSI
Kd [2, 22]: 8.05 µM
Kd [3, 22]: 2.14 µM
Kd [4, 22]: ≥ 38.3 µM

VVYRGTTTY
Kd ([17]; source organism: SARS-CoV1): 0.11 µM
Kd ([20]; source organism: SARS-CoV1): 0.281 µM
Kd [9]: 8.79 µM
Kd [10]: ≥ 77.7 µM
Kd [11]: 9.74 µM

WPLNEGVMAV
Kd [15, 24]: 1.67 µM

WQNLAWAGV
Kd [5, 26]: 0.0536 µM
Kd [6, 26]: 7 µM

WTLDANINA
IC50 ([16]; source organism: Sudan ebolavirus): 3.85 µM

YAAEMVEYL
Kd [2, 22]: 0.000524 µM
Kd [3, 22]: 0.00207 µM
Kd [4, 22]: 0.0118 µM

YAGTIKESLL
Kd [2, 22]: 1.02 µM
Kd [3, 22]: 4.04 µM
Kd [4, 22]: 1.77 µM

YCSNIKLQVV
Kd [2, 27]: 1.23 µM
Kd [3, 27]: 0.801 µM
Kd [4, 27]: 7.12 µM

YQTDSGCWY
Kd [17, 28]: 1.34 µM
Kd [8, 28]: 6.06 µM

YTDRKWCFD
Kd [21, 24]: 0.597 µM
